Measurements as given in PMC2169462 (The Journal of Cell Biology, 2001).

Target: His6-tagged human RanGTP Q69L (human, UniProt P62826 1-216, Q69L)
Assay: pull-down

B1: recombinant Kap95p (natural protein)
chain: MSTAEFAQLLENSILSPDQNIRLTSETQLKKLSNDNFLQFAGLSSQVLIDENTKLEGRILAALTLKNELVSKDSVKTQQFAQRWITQVSPEAKNQIKTNALTALVSIEPRIANAAAQLIAAIADIELPHGAWPELMKIMVDNTGAEQPENVKRASLLALGYMCESADPQSQALVSSSNNILIAIVQGAQSTETSKAVRLAALNALADSLIFIKNNMEREGERNYLMQVVCEATQAEDIEVQAAAFGCLCKIMSLYYTFMKPYMEQALYALTIATMKSPNDKVASMTVEFWSTICEEEIDIAYELAQFPQSPLQSYNFALSSIKDVVPNLLNLLTRQNEDPEDDDWNVSMSAGACLQLFAQNCGNHILEPVLEFVEQNITADNWRNREAAVMAFGSIMDGPDKVQRTYYVHQALPSILNLMNDQSLQVKETTAWCIGRIADSVAESIDPQQHLPGVVQACLIGLQDHPKVATNCSWTIINLVEQLAEATPSPIYNFYPALVDGLIGAANRIDNEFNARASAFSALTTMVEYATDTVAETSASISTFVMDKLGQTMSVDENQLTLEDAQSLQELQSNILTVLAAVIRKSPSSVEPVADMLMGLFFRLLEKKDSAFIEDDVFYAISALAASLGKGFEKYLETFSPYLLKALNQVDSPVSITAVGFIADISNSLEEDFRRYSDAMMNVLAQMISNPNARRELKPAVLSVFGDIASNIGADFIPYLNDIMALCVAAQNTKPENGTLEALDYQIKVLEAVLDAYVGIVAGLHDKPEALFPYVGTIFQFIAQVAEDPQLYSEDATSRAAVGLIGDIAAMFPDGSIKQFYGQDWVIDYIKRTRSGQLFSQATKDTARWAREQQKRQLSL
binding result: binds

B2: recombinant Kap121p (natural protein)
chain: MSALPEEVNRTLLQIVQAFASPDNQIRSVAEKALSEEWITENNIEYLLTFLAEQAAFSQDTTVAALSAVLFRKLALKAPPSSKLMIMSKNITHIRKEVLAQIRSSLLKGFLSERADSIRHKLSDAIAECVQDDLPAWPELLQALIESLKSGNPNFRESSFRILTTVPYLITAVDINSILPIFQSGFTDASDNVKIAAVTAFVGYFKQLPKSEWSKLGILLPSLLNSLPRFLDDGKDDALASVFESLIELVELAPKLFKDMFDQIIQFTDMVIKNKDLEPPARTTALELLTVFSENAPQMCKSNQNYGQTLVMVTLIMMTEVSIDDDDAAEWIESDDTDDEEEVTYDHARQALDRVALKLGGEYLAAPLFQYLQQMITSTEWRERFAAMMALSSAAEGCADVLIGEIPKILDMVIPLINDPHPRVQYGCCNVLGQISTDFSPFIQRTAHDRILPALISKLTSECTSRVQTHAAAALVNFSEFASKDILEPYLDSLLTNLLVLLQSNKLYVQEQALTTIAFIAEAAKNKFIKYYDTLMPLLLNVLKVNNKDNSVLKGKCMECATLIGFAVGKEKFHEHSQELISILVALQNSDIDEDDALRSYLEQSWSRICRILGDDFVPLLPIVIPPLLITAKATQDVGLIEEEEAANFQQYPDWDVVQVQGKHIAIHTSVLDDKVSAMELLQSYATLLRGQFAVYVKEVMEEIALPSLDFYLHDGVRAAGATLIPILLSCLLAATGTQNEELVLLWHKASSKLIGGLMSEPMPEITQVYHNSLVNGIKVMGDNCLSEDQLAAFTKGVSANLTDTYERMQDRHGDGDEYNENIDEEEDFTDEDLLDEINKSIAAVLKTTNGHYLKNLENIWPMINTFLLDNEPILVIFALVVIGDLIQYGGEQTASMKNAFIPKVTECLISPDARIRQAASYIIGVCAQYAPSTYADVCIPTLDTLVQIVDFPGSKLEENRSSTENASAAIAKILYAYNSNIPNVDTYTANWFKTLPTITDKEAASFNYQFLSQLIENNSPIVCAQSNISAVVDSVIQALNERSLTEREGQTVISSVKKLLGFLPSSDAMAIFNRYPADIMEKVHKWFA
binding result: binds
